US20260176319A1 (KALLYOPE, published 2026)
Starred links: 1 amine or outer side, 2 acyl side, 3 side chain; linkers in the order of their positions; H or OH if unused. Non-standard residues stand in square brackets, D forms with d. No end group written: not given here. *: point of attachment. C20 diacid = O=C(O)CCCCCCCCCCCCCCCCCCC(=O)*; d(γGlu) = O=C(O)[C@@H](CCC(=O)[*:2])N[*:1]; C18 diacid = O=C(O)CCCCCCCCCCCCCCCCC(=O)*; γGlu = O=C(O)[C@H](CCC(=O)[*:2])N[*:1]; Palmitoyl = CCCCCCCCCCCCCCCC(=O)*; 3Pal = N[C@@H](Cc1cccnc1)C(=O)O; Nle = CCCC[C@H](N)C(=O)O; AEEA = NCCOCCOCC(=O)O; βAla = NCCC(=O)O

molecular target: human GRP receptor (human, UniProt P30550 1-384); test: cell-based or functional assay
Sequence (P30550 whole entry): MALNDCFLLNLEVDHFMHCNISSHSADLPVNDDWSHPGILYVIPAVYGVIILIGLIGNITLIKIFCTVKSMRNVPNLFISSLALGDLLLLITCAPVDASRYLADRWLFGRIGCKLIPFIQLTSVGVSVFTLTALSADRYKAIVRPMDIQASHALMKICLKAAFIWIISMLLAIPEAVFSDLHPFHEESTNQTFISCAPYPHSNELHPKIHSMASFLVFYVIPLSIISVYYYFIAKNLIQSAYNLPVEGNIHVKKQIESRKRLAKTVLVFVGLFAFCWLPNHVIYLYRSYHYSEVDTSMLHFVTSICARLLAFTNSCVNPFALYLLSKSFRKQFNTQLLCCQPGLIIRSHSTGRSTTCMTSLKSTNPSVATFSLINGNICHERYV

Binder	hIP1 GRPR EC50 [nM]
{C20 diacid}-[γGlu][AEEA][AEEA]GNHWAV[dA]HL[Nle] [Peptide 148]	126
{C18 diacid}-[γGlu][AEEA][AEEA]GNHWAV[dA][dH]L[Nle]-NH2 (SMILES CCCC[C@H](NC(=O)[C@H](CC(C)C)NC(=O)[C@@H](Cc1c[nH]cn1)NC(=O)[C@@H](C)NC(=O)[C@@H](NC(=O)[C@H](C)NC(=O)[C@H](Cc1c[nH]c2ccccc12)NC(=O)[C@H](Cc1c[nH]cn1)NC(=O)[C@H](CC(N)=O)NC(=O)CNC(=O)COCCOCCNC(=O)COCCOCCNC(=O)CC[C@H](NC(=O)CCCCCCCCCCCCCCCCC(=O)O)C(=O)O)C(C)C)C(N)=O) [Peptide 159]	101
{C20 diacid}-[γGlu][AEEA][AEEA]GNHWAV[dA]HL[Nle]-NH2 (SMILES CCCC[C@H](NC(=O)[C@H](CC(C)C)NC(=O)[C@H](Cc1c[nH]cn1)NC(=O)[C@@H](C)NC(=O)[C@@H](NC(=O)[C@H](C)NC(=O)[C@H](Cc1c[nH]c2ccccc12)NC(=O)[C@H](Cc1c[nH]cn1)NC(=O)[C@H](CC(N)=O)NC(=O)CNC(=O)COCCOCCNC(=O)COCCOCCNC(=O)CC[C@H](NC(=O)CCCCCCCCCCCCCCCCCCC(=O)O)C(=O)O)C(C)C)C(N)=O) [Peptide 149]	1.89
{C20 diacid}-[γGlu][AEEA][AEEA]GRHWAV[dA]HL[Nle]-NH2 (SMILES CCCC[C@H](NC(=O)[C@H](CC(C)C)NC(=O)[C@H](Cc1c[nH]cn1)NC(=O)[C@@H](C)NC(=O)[C@@H](NC(=O)[C@H](C)NC(=O)[C@H](Cc1c[nH]c2ccccc12)NC(=O)[C@H](Cc1c[nH]cn1)NC(=O)[C@H](CCCNC(=N)N)NC(=O)CNC(=O)COCCOCCNC(=O)COCCOCCNC(=O)CC[C@H](NC(=O)CCCCCCCCCCCCCCCCCCC(=O)O)C(=O)O)C(C)C)C(N)=O) [Peptide 150]	4.09
{C18 diacid}-[γGlu][AEEA][AEEA]RRHWAV[dA]HL[Nle] [Peptide 157]	161
{C20 diacid}-[γGlu]RRHWAV[dA]HL[Nle]-NH2 (SMILES CCCC[C@H](NC(=O)[C@H](CC(C)C)NC(=O)[C@H](Cc1c[nH]cn1)NC(=O)[C@@H](C)NC(=O)[C@@H](NC(=O)[C@H](C)NC(=O)[C@H](Cc1c[nH]c2ccccc12)NC(=O)[C@H](Cc1c[nH]cn1)NC(=O)[C@H](CCCNC(=N)N)NC(=O)[C@H](CCCNC(=N)N)NC(=O)CC[C@H](NC(=O)CCCCCCCCCCCCCCCCCCC(=O)O)C(=O)O)C(C)C)C(N)=O) [Peptide 158]	1.68

Other lines, results leading:

hIP1 GRPR EC50 [nM]	Binder
132	{C20 diacid}-[γGlu]RNHWAV[dA]HL[Nle] [Peptide 155]
7.09	{C20 diacid}-[γGlu]RNHWAV[dA]HL[Nle]-NH2 (SMILES CCCC[C@H](NC(=O)[C@H](CC(C)C)NC(=O)[C@H](Cc1c[nH]cn1)NC(=O)[C@@H](C)NC(=O)[C@@H](NC(=O)[C@H](C)NC(=O)[C@H](Cc1c[nH]c2ccccc12)NC(=O)[C@H](Cc1c[nH]cn1)NC(=O)[C@H](CC(N)=O)NC(=O)[C@H](CCCNC(=N)N)NC(=O)CC[C@H](NC(=O)CCCCCCCCCCCCCCCCCCC(=O)O)C(=O)O)C(C)C)C(N)=O) [Peptide 154]
279	{C18 diacid}-[γGlu][AEEA][AEEA]GNHWAV[dA]HL[Nle] [Peptide 146]
5.72	{C18 diacid}-[γGlu][AEEA][AEEA]GQHWAV[dA]HL[Nle]-NH2 (SMILES CCCC[C@H](NC(=O)[C@H](CC(C)C)NC(=O)[C@H](Cc1c[nH]cn1)NC(=O)[C@@H](C)NC(=O)[C@@H](NC(=O)[C@H](C)NC(=O)[C@H](Cc1c[nH]c2ccccc12)NC(=O)[C@H](Cc1c[nH]cn1)NC(=O)[C@H](CCC(N)=O)NC(=O)CNC(=O)COCCOCCNC(=O)COCCOCCNC(=O)CC[C@H](NC(=O)CCCCCCCCCCCCCCCCC(=O)O)C(=O)O)C(C)C)C(N)=O) [Peptide 147]
2.92	{C20 diacid}-[γGlu][AEEA][AEEA]GQHWAV[dA]HL[Nle]-NH2 (SMILES CCCC[C@H](NC(=O)[C@H](CC(C)C)NC(=O)[C@H](Cc1c[nH]cn1)NC(=O)[C@@H](C)NC(=O)[C@@H](NC(=O)[C@H](C)NC(=O)[C@H](Cc1c[nH]c2ccccc12)NC(=O)[C@H](Cc1c[nH]cn1)NC(=O)[C@H](CCC(N)=O)NC(=O)CNC(=O)COCCOCCNC(=O)COCCOCCNC(=O)CC[C@H](NC(=O)CCCCCCCCCCCCCCCCCCC(=O)O)C(=O)O)C(C)C)C(N)=O) [Peptide 151]
2.87	{C20 diacid}-[γGlu]GRHWAV[dA]HL[Nle]-NH2 (SMILES CCCC[C@H](NC(=O)[C@H](CC(C)C)NC(=O)[C@H](Cc1c[nH]cn1)NC(=O)[C@@H](C)NC(=O)[C@@H](NC(=O)[C@H](C)NC(=O)[C@H](Cc1c[nH]c2ccccc12)NC(=O)[C@H](Cc1c[nH]cn1)NC(=O)[C@H](CCCNC(=N)N)NC(=O)CNC(=O)CC[C@H](NC(=O)CCCCCCCCCCCCCCCCCCC(=O)O)C(=O)O)C(C)C)C(N)=O) [Peptide 153]
358	{C18 diacid}-[γGlu][AEEA][AEEA]RNHWAV[dA]HL[Nle] [Peptide 156]
1.8	Palmitoyl-[d(γGlu)][AEEA][AEEA]GN[3Pal]WAV[dA]HL[Nle]-NH2 (SMILES CCCCCCCCCCCCCCCC(=O)N[C@H](CCC(=O)NCCOCCOCC(=O)NCCOCCOCC(=O)NCC(=O)N[C@@H](CC(N)=O)C(=O)N[C@@H](Cc1cccnc1)C(=O)N[C@@H](Cc1c[nH]c2ccccc12)C(=O)N[C@@H](C)C(=O)N[C@H](C(=O)N[C@H](C)C(=O)N[C@@H](Cc1c[nH]cn1)C(=O)N[C@@H](CC(C)C)C(=O)N[C@@H](CCCC)C(N)=O)C(C)C)C(=O)O) [Peptide 12]
3.9	{C18 diacid}-[γGlu][AEEA][AEEA]QHWAV[βAla]HL[Nle]-NH2 (SMILES CCCC[C@H](NC(=O)[C@H](CC(C)C)NC(=O)[C@H](Cc1c[nH]cn1)NC(=O)CCNC(=O)[C@@H](NC(=O)[C@H](C)NC(=O)[C@H](Cc1c[nH]c2ccccc12)NC(=O)[C@H](Cc1c[nH]cn1)NC(=O)[C@H](CCC(N)=O)NC(=O)COCCOCCNC(=O)COCCOCCNC(=O)CC[C@H](NC(=O)CCCCCCCCCCCCCCCCC(=O)O)C(=O)O)C(C)C)C(N)=O) [Peptide 152]
